Test results from patent publication US20230130599A1 (BEIJING QL BIOPHARMACEUTICAL, published 2023).

Target: T1, human GFRAL (human, UniProt Q6UXV0 19-394)
T1 sequence (looked up): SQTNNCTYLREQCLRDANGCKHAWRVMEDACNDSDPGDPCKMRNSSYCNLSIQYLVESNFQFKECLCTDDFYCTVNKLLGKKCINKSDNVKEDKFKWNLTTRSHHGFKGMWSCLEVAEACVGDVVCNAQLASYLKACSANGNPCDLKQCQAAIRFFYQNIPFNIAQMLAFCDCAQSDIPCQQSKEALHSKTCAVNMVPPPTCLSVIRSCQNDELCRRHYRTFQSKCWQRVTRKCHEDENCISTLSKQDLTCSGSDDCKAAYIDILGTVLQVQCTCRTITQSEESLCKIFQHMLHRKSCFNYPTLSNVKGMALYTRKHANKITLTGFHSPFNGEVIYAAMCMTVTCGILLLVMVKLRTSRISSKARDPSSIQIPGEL
Experiment: cell-based or functional assay

1% HSA GDF15 activity (EC50, pM); SRE luciferase reporter: 8.2 pM | HSA free GDF15 activity (EC50, pM); SRE luciferase reporter: 10.3 pM
B1: Native GDF15 (SEQ ID NO: 9) (ligand)
chain: ARNGDHCPLGPGRCCRLHTVRASLEDLGWADWVLSPREVQVTMCIGACPSQFRAANMHAQIKTSLHRLKPDTVPAPCCVPASYNPMVLIQKTDTGVSLQTYDDLLAKDCHCI
